Results as given in IntAct's records for PubMed 31515488.

B1: Keratin, type II cytoskeletal 2 epidermal (Homo sapiens), P35908 (parent)
chain: MSCQISCKSRGRGGGGGGFRGFSSGSAVVSGGSRRSTSSFSCLSRHGGGGGGFGGGGFGSRSLVGLGGTKSISISVAGGGGGFGAAGGFGGRGGGFGGGSSFGGGSGFSGGGFGGGGFGGGRFGGFGGPGGVGGLGGPGGFGPGGYPGGIHEVSVNQSLLQPLNVKVDPEIQNVKAQEREQIKTLNNKFASFIDKVRFLEQQNQVLQTKWELLQQMNVGTRPINLEPIFQGYIDSLKRYLDGLTAERTSQNSELNNMQDLVEDYKKKYEDEINKRTAAENDFVTLKKDVDNAYMIKVELQSKVDLLNQEIEFLKVLYDAEISQIHQSVTDTNVILSMDNSRNLDLDSIIAEVKAQYEEIAQRSKEEAEALYHSKYEELQVTVGRHGDSLKEIKIEISELNRVIQRLQGEIAHVKKQCKNVQDAIADAEQRGEHALKDARNKLNDLEEALQQAKEDLARLLRDYQELMNVKLALDVEIATYRKLLEGEECRMSGDLSSNVTVSVTSSTISSNVASKAAFGGSGGRGSSSGGGYSSGSSSYGSGGRQSGSRGGSGGGGSISGGGYGSGGGSGGRYGSGGGSKGGSISGGGYGSGGGKHSSGGGSRGGSSSGGGYGSGGGGSSSVKGSSGEAFGSSVTFSFR
B2: Calcium-binding and coiled-coil domain-containing protein 2 (Homo sapiens), Q13137 (parent)
chain: MEETIKDPPTSAVLLDHCHFSQVIFNSVEKFYIPGGDVTCHYTFTQHFIPRRKDWIGIFRVGWKTTREYYTFMWVTLPIDLNNKSAKQQEVQFKAYYLPKDDEYYQFCYVDEDGVVRGASIPFQFRPENEEDILVVTTQGEVEEIEQHNKELCKENQELKDSCISLQKQNSDMQAELQKKQEELETLQSINKKLELKVKEQKDYWETELLQLKEQNQKMSSENEKMGIRVDQLQAQLSTQEKEMEKLVQGDQDKTEQLEQLKKENDHLFLSLTEQRKDQKKLEQTVEQMKQNETTAMKKQQELMDENFDLSKRLSENEIICNALQRQKERLEGENDLLKRENSRLLSYMGLDFNSLPYQVPTSDEGGARQNPGLAYGNPYSGIQESSSPSPLSIKKCPICKADDICDHTLEQQQMQPLCFNCPICDKIFPATEKQIFEDHVFCHSL
partner: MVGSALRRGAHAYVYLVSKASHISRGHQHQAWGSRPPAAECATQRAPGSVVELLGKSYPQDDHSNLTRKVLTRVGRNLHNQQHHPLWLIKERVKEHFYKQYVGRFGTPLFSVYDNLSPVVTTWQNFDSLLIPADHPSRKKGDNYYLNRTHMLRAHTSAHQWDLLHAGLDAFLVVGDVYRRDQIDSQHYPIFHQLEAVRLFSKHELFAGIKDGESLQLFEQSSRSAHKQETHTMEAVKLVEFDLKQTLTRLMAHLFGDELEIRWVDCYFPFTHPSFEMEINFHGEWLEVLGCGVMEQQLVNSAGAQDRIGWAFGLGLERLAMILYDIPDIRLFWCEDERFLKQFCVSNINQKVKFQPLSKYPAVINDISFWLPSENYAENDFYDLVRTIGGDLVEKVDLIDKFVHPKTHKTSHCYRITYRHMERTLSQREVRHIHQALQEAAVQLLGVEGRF
B3: E3 ubiquitin-protein ligase CHIP (Homo sapiens), Q9UNE7 (parent)
chain: MKGKEEKEGGARLGAGGGSPEKSPSAQELKEQGNRLFVGRKYPEAAACYGRAITRNPLVAVYYTNRALCYLKMQQHEQALADCRRALELDGQSVKAHFFLGQCQLEMESYDEAIANLQRAYSLAKEQRLNFGDDIPSALRIAKKKRWNSIEERRIHQESELHSYLSRLIAAERERELEECQRNHEGDEDDSHVRAQQACIEAKHDKYMADMDELFSQVDEKRKKRDIPDYLCGKISFELMREPCITPSGITYDRKDIEEHLQRVGHFDPVTRSPLTQEQLIPNLAMKEVIDAFISENGWVEDY
B4: Hematopoietic prostaglandin D synthase (Homo sapiens), O60760 (parent)
chain: MPNYKLTYFNMRGRAEIIRYIFAYLDIQYEDHRIEQADWPEIKSTLPFGKIPILEVDGLTLHQSLAIARYLTKNTDLAGNTEMEQCHVDAIVDTLDDFMSCFPWAEKKQDVKEQMFNELLTYNAPHLMQDLDTYLGGREWLIGNSVTWADFYWEICSTTLLVFKPDLLDNHPRLVTLRKKVQAIPAVANWIKRRPQTKL
partner: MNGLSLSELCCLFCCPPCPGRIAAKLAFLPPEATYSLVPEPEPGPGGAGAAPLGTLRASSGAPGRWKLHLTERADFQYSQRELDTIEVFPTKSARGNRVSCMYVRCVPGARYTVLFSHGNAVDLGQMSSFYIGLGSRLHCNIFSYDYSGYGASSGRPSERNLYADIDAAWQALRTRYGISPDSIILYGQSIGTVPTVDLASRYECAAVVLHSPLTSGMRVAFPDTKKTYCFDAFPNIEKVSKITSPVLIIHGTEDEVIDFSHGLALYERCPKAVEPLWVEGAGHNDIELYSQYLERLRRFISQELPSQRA
B5: Phagosome assembly factor 1 (Homo sapiens), Q9BSU1 (parent)
chain: MLDLEVVPERSLGNEQWEFTLGMPLAQAVAILQKHCRIIKNVQVLYSEQSPLSHDLILNLTQDGIKLMFDAFNQRLKVIEVCDLTKVKLKYCGVHFNSQAIAPTIEQIDQSFGATHPGVYNSAEQLFHLNFRGLSFSFQLDSWTEAPKYEPNFAHGLASLQIPHGATVKRMYIYSGNSLQDTKAPMMPLSCFLGNVYAESVDVLRDGTGPAGLRLRLLAAGCGPGLLADAKMRVFERSVYFGDSCQDVLSMLGSPHKVFYKSEDKMKIHSPSPHKQVPSKCNDYFFNYFTLGVDILFDANTHKVKKFVLHTNYPGHYNFNIYHRCEFKIPLAIKKENADGQTETCTTYSKWDNIQELLGHPVEKPVVLHRSSSPNNTNPFGSTFCFGLQRMIFEVMQNNHIASVTLYGPPRPGSHLRTAELP
B6: Tuftelin-interacting protein 11 (Homo sapiens), Q9UBB9 (parent)
chain: MSLSHLYRDGEGRIDDDDDERENFEITDWDLQNEFNPNRQRHWQTKEEATYGVWAERDSDDERPSFGGKRARDYSAPVNFISAGLKKGAAEEAELEDSDDEEKPVKQDDFPKDFGPRKLKTGGNFKPSQKGFAGGTKSFMDFGSWERHTKGIGQKLLQKMGYVPGRGLGKNAQGIINPIEAKQRKGKGAVGAYGSERTTQSMQDFPVVDSEEEAEEEFQKELSQWRKDPSGSKKKPKYSYKTVEELKAKGRISKKLTAPQKELSQVKVIDMTGREQKVYYSYSQISHKHNVPDDGLPLQSQQLPQSGKEAKAPGFALPELEHNLQLLIDLTEQEIIQNDRQLQYERDMVVNLFHELEKMTEVLDHEERVISNLSKVLEMVEECERRMQPDCSNPLTLDECARIFETLQDKYYEEYRMSDRVDLAVAIVYPLMKEYFKEWDPLKDCTYGTEIISKWKSLLENDQLLSHGGQDLSADAFHRLIWEVWMPFVRNIVTQWQPRNCDPMVDFLDSWVHIIPVWILDNILDQLIFPKLQKEVENWNPLTDTVPIHSWIHPWLPLMQARLEPLYSPIRSKLSSALQKWHPSDSSAKLILQPWKDVFTPGSWEAFMVKNIVPKLGMCLGELVINPHQQHMDAFYWVIDWEGMISVSSLVGLLEKHFFPKWLQVLCSWLSNSPNYEEITKWYLGWKSMFSDQVLAHPSVKDKFNEALDIMNRAVSSNVGAYMQPGARENIAYLTHTERRKDFQYEAMQERREAENMAQRGIGVAASSVPMNFKDLIETKAEEHNIVFMPVIGKRHEGKQLYTFGRIVIYIDRGVVFVQGEKTWVPTSLQSLIDMAK
partner: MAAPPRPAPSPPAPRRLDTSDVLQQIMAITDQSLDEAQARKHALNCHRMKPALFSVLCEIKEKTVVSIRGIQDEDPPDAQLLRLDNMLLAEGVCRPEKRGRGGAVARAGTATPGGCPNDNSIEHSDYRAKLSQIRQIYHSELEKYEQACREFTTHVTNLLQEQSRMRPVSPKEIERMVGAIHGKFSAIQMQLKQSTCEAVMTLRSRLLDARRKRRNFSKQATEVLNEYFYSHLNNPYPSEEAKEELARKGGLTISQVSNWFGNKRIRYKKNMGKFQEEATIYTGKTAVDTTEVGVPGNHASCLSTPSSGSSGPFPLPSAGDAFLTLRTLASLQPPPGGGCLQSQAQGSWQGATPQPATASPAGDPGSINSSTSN
B7: Coiled-coil domain-containing protein 68 (Homo sapiens), Q9H2F9 (parent)
chain: MTTVTVTTEIPPRDKMEDNSALYESTSAHIIEETEYVKKIRTTLQKIRTQMFKDEIRHDSTNHKLDAKHCGNLQQGSDSEMDPSCCSLDLLMKKIKGKDLQLLEMNKENEVLKIKLQASREAGAAALRNVAQRLFENYQTQSEEVRKKQEDSKQLLQVNKLEKEQKLKQHVENLNQVAEKLEEKHSQITELENLVQRMEKEKRTLLERKLSLENKLLQLKSSATYGKSCQDLQREISILQEQISHLQFVIHSQHQNLRSVIQEMEGLKNNLKEQDKRIENLREKVNILEAQNKELKTQVALSSETPRTKVSKAVSTSELKTEGVSPYLMLIRLRK
B8: Late cornified envelope protein 1B (Homo sapiens), Q5T7P3 (parent)
chain: MSCQQNQQQCQPPPKCIPKCPPKCLTPRCPPKCPPKCPPVSSCCSVSSGGCCGSSSGGSCGSSSGGCCSSGGGGCCLSHHRRRRSHCHRPQSSGCCSQPSGGSSCCGGGSGQHSGGCC
partner: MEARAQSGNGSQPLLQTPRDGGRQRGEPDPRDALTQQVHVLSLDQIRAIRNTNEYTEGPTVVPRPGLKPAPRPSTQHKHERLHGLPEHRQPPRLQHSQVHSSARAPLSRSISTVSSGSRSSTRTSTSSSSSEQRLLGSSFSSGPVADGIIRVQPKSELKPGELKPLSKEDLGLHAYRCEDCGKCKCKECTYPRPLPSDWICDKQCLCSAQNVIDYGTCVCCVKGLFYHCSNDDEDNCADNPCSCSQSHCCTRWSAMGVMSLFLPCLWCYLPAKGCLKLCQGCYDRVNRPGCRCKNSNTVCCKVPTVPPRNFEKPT

Variants of: B1
Settings: with KRT19, P08727
Sequence of KRT19, P08727 (P08727 whole entry): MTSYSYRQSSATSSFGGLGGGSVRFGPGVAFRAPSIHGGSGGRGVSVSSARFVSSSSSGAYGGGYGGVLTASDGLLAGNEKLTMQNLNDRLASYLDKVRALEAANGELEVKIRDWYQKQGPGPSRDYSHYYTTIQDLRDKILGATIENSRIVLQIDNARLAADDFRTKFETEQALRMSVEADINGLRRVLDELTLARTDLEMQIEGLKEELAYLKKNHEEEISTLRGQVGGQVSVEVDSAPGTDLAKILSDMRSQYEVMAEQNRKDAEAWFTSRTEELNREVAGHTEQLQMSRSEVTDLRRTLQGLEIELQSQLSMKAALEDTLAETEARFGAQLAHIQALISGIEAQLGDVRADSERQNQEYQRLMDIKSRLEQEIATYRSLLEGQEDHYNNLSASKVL
A517G was tested, and the “effect of a mutation on the interaction” value was “with no effect”.

Variants of: B2
Settings: with syfm_human FARS2, O95363
In the case of E222K, the “effect of a mutation on the interaction” value is reported as “with no effect”.

Variants of: B3
Settings: with noe3_human OLFM3, Q96PB7
Sequence of noe3_human OLFM3, Q96PB7 (Q96PB7 whole entry): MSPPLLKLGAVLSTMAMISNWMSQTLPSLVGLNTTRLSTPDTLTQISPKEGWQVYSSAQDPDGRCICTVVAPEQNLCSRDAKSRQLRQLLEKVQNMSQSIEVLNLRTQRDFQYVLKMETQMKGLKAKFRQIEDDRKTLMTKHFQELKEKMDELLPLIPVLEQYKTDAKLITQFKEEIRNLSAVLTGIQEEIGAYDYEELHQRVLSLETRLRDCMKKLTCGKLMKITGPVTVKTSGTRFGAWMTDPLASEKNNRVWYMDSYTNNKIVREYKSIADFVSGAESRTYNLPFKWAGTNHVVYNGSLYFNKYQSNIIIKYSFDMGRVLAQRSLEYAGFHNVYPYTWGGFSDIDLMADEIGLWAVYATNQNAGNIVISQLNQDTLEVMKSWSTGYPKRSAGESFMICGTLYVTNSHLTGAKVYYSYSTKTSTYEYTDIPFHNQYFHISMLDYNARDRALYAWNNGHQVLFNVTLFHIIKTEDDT
In the case of Q181H, the “effect of a mutation on the interaction” value is reported as “with no effect”.

Variants of: B4
Settings: with ab17a_human ABHD17A
For M128T, the “effect of a mutation on the interaction” value was “disrupting interaction strength”.

Variants of: B5
Settings: with bcas3_human BCAS3, Q9H6U6
Sequence of bcas3_human BCAS3, Q9H6U6 (Q9H6U6 whole entry): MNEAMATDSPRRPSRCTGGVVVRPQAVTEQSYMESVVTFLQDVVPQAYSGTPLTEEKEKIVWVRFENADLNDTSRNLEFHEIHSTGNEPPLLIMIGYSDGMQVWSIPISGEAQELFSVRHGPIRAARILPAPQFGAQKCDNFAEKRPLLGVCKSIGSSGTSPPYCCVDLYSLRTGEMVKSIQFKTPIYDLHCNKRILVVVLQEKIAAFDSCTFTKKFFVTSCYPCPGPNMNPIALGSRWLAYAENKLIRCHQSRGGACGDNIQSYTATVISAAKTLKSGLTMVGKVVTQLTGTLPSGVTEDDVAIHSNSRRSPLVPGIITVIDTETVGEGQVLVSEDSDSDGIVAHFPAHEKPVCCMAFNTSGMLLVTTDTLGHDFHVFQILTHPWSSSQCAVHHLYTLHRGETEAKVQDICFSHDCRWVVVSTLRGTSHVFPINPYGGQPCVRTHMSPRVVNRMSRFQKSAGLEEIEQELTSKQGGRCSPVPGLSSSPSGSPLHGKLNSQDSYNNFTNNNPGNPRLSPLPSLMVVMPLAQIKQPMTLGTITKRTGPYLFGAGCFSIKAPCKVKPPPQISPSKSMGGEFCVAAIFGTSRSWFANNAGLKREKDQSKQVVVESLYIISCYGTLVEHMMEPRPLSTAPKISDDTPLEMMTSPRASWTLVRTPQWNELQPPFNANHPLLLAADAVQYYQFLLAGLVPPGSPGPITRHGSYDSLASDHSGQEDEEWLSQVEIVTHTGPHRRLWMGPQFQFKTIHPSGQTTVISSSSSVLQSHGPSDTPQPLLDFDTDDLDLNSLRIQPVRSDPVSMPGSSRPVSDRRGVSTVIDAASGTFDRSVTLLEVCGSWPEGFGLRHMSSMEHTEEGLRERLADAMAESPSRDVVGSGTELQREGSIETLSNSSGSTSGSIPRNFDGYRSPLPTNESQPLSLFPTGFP
In the case of G13R, the “effect of a mutation on the interaction” value is reported as “with no effect”.

Variants of: B6
Settings: with pbx4_human PBX4, Q9BYU1
For S688L, the “effect of a mutation on the interaction” value was “with no effect”.
For R8Q, the “effect of a mutation on the interaction” value was “with no effect”.

Variants of: B7
Settings: with tfp11_human TFIP11, Q9UBB9
V249A was tested, and the “effect of a mutation on the interaction” value was “with no effect”.
For L100V, the “effect of a mutation on the interaction” value was “with no effect”.
In the case of D151G, the “effect of a mutation on the interaction” value is reported as “with no effect”.

Variants of: B8
Settings: with spy2_human SPRY2, O43597
In the case of C51Y, the “effect of a mutation on the interaction” value is reported as “with no effect”.
